In the RNAGym collection of RNA variant scans (doi:10.7554/elife.80360) one finds self-cleavage data, which are given here for 167 variants.

The labels stand for the following.
B1: Twister Ribozyme (parent)
chain: AACACUGCCAAUGCCGGUCCCAAGCCCGGAUAAAAGUGGAGGGGGCGG

The variants in this data set derive from B1. In words: self-cleavage, relative activity (ratio to wild type); higher = more cleavage; co-transcriptional.
G16U G28U: the self-cleavage was determined as 1.07.
The value for A35U G43A was 0.25; that for U6C C8G was 0.0656.
For C46G G48A, the self-cleavage came out at 1.
Take A23U C46A: the self-cleavage is 0.325.
The value for U37A G42U was 0.153; that for C27G G47U was 0.0917.
Under U12C G47A stands 0.785; under A40G G45C, 0.148.
The value for A30G G44C was 1.02.
Regarding G16A G28U, the self-cleavage worked out at 0.607.
As to A32C U37C, the self-cleavage was found to be 0.494.
C3U G36C: the self-cleavage came out at 0.0744.
As to A4C G43A, the self-cleavage worked out at 0.0357.
G16A A30C: the self-cleavage was 0.91.
In the case of U6A C26U, the self-cleavage came out at 0.237.
The value for C26U A35U was 0.553; that for A4U C8U was 0.0539.
Under C15G G43C stands 0.0538; under C15A A22G, 0.141.
Under G16A U18A stands 0.482.
Turning to G16A U18C, the self-cleavage stood at 0.41.
Under C9A G41U stands 0.179; under G39A C46U, 0.445.
The value for G39A C46A was 0.463; that for G36U G38A was 0.452; that for U31G G43U was 0.467.
The value for G28A G47A was 0.545; that for U18A C21A was 0.084.
As for U6G C15A, the self-cleavage is 0.301.
For the variant A23C A35U, the self-cleavage is 0.404.
The value for C5U C20A was 0.105; that for G16C G39U was 0.144; that for A11G G13U was 0.705.
The value for C21U G47A was 0.123; that for C27G C46A was 0.0878; that for A22U A34U was 0.495.
The value for U6C G48C was 0.829.
On to U6C G48U, for which the self-cleavage was found to be 0.607.
Under A2C A34G stands 0.0505.
The value for A23G G42U was 0.121.
The value for A23G G42A was 0.128; that for A4G C25G was 0.189; that for A4G C25A was 0.054.
For G13C G39C, the self-cleavage was 0.117.
Under C14U U31G stands 0.941.
Under A34G G43U stands 0.133; under G17A G38A, 0.498; under G17U G41U, 0.101.
The value for U6G G43A was 0.144.
As for A35U U37C, the self-cleavage is 0.633.
Under U31G G48U stands 0.938; under C14G C21G, 0.0402; under A1G A34G, 0.361.
Under G7U G43U stands 0.102.
For C5G C15A, the self-cleavage was determined as 0.251.
The value for C14G G47C was 0.0728; that for A11G G28A was 0.84; that for A10U C21A was 0.175.
Under C26G U31G stands 0.348; under A10C U12C, 0.929; under C26U A32C, 0.451.
Regarding U6G G44A, the self-cleavage is 0.229.
The value for G38A G42C was 0.247; that for C8G G43C was 0.139; that for C9A U37G was 0.33.
Regarding U6G U37G, the self-cleavage turned out to be 0.196.
The value for A1C G36A was 0.203; that for A11U G29U was 1.04.
The value for A11U G48U was 1.12.
The value for G28A A33G was 0.781; that for G28U U31G was 0.992.
Take A30U G36U: the self-cleavage amounted to 0.294.
Under A4U G38A stands 0.0789; under U6C G45U, 0.495.
Under U6C G45A stands 0.6; under A30G A40G, 0.187.
The value for G13U A33G was 0.68; that for A32U G36U was 0.148; that for C19G G39U was 0.118.
For the variant A30G G47U, the self-cleavage turned out to be 0.877.
As to A2C G42U, the self-cleavage came out at 0.0469.
As for U6C A22G, the self-cleavage is 0.0819.
Under A33G C46A stands 0.894; under G13C G24U, 0.0687; under A10U G42C, 0.543.
As to A32C G39C, the self-cleavage was found to be 0.079.
The value for U6A A35U was 0.992.
As for G42U G44A, the self-cleavage was 0.524.
Under A23G A35G stands 0.188; under G7U G38A, 0.0965.
Under A11C C21A stands 0.0812; under C9G G45A, 0.444.
Under A4C C27G stands 0.0637.
Turning to C26U G38C, the self-cleavage came to 0.225.
Under A23G C26A stands 0.0747; under A4C G36U, 0.0758; under G17C A32C, 0.0792.
Regarding A32U G38U, the self-cleavage turned out to be 0.94.
Regarding A32U G38A, the self-cleavage was 0.85.
Under G29A G47U stands 0.765; under C27G A40C, 0.119; under U12A G38U, 1.01.
Under C8G A33G stands 0.232; under C5A G47U, 0.486; under G39C A40G, 0.164.
The value for G16U A35G was 0.765; that for A10C G39C was 0.172.
On to C8G C15G, for which the self-cleavage was determined as 0.062.
G13U G24A: the self-cleavage is 0.0906.
Under A33C C46U stands 0.961; under G36U A40U, 0.141; under A11C G47C, 0.648.
Under A35U G48U stands 1.17.
Under A11U G16C stands 0.532.
G29U G48A: the self-cleavage came out at 0.905.
Under G24C C25G stands 0.118.
In the case of C26A G39A, the self-cleavage stood at 0.107.
Under C14A G17A stands 0.457; under A23C G45U, 0.156.
Under A4G A35C stands 0.865; under U12G U31G, 0.834.
The value for C5U G41C was 0.137; that for A2U C26A was 0.131; that for C21G G28C was 0.0382.
Take A2C C19A: the self-cleavage worked out at 0.0459.
The value for C19A C27A was 0.0712; that for A23G G29C was 0.1.
Under A30U U31C stands 1.02; under C15U U18G, 0.0578.
The value for U12C A22G was 0.307.
Regarding U18G G41U, the self-cleavage is 0.0362.
The value for U18G G41A was 0.0588.
Under C20A G42U stands 0.668.
The value for A22C G47C was 0.458.
Turning to A11G A22U, the self-cleavage came to 0.66.
As to C21G C46U, the self-cleavage came out at 0.0875.
The value for G16A A22U was 0.631; that for C8A C26A was 0.106.
The value for U12A G42A was 0.463; that for A2U U37A was 0.202.
The value for A11U C21G was 0.0514; that for U12G C46U was 0.866; that for U12A U37C was 0.727.
As to A34G G38A, the self-cleavage came to 0.629.
Under G41U G44U stands 0.193; under U31G G42C, 0.699.
Under U31G G42A stands 0.497.
Take C3G A33U: the self-cleavage came to 0.526.
The value for A23G A40C was 0.0453; that for G29C U37A was 0.259; that for A32C A40C was 0.159.
Under A40G G41C stands 0.133; under U18G C21A, 0.133.
Under U6G U18G stands 0.0678; under A2C G16U, 0.0604; under G13C C19U, 0.0706.
In the case of A2U C25A, the self-cleavage came out at 0.0735.
On to A4G C9U, for which the self-cleavage turned out to be 0.549.
The value for A2U G24C was 0.109; that for A4U C26A was 0.0524.
The value for C14U G47C was 0.616.
Turning to G13A C26A, the self-cleavage is 0.095.
Under C5G C20A stands 0.0467; under A30U A32C, 0.945.
Regarding C8A G42U, the self-cleavage was determined as 0.168.
Take C5U A40G: the self-cleavage came to 0.133.
